Assay in all cases: purified protein, by the assay type
Substrate in series [1]: C=C(C)[C@H]1CC=C(C)C(=O)C1
Substrate in series [2]: CC1=CC(=O)CC(C)(C)C1=O
Substrate in series [3]: CC1=CC(=O)[C@H]2C[C@@H]1C2(C)C
Substrate in series [4]: CC1=CCCC1=O
Substrate in series [5]: CC1=CC(=O)CC1
Substrate in series [6]: COC(=O)C1=CCCCC1
Substrate in series [7]: O=[N+]([O-])C1=CCCCC1

Km, kcat and kcat/Km data for two proteins are collected here from publication doi:10.1101/2022.11.05.515281v1.

One may read the Km as the concentration of substrate that gives half-maximal velocity. For orientation: kcat means the number of substrate molecules converted per active site and unit of time at saturation. As a reminder, the kcat/Km is the turnover number divided by the Michaelis constant.

B1: MSMEG_2027 (Mycolicibacterium smegmatis MC2 155) (protein)
chain: MTDAELSPTDWVREQTERILEQGTTDGVHVLDRPIVLFTTTGAKSGKKRYVPLMRVEENGKYAMVASKGGDPKHPSWYFNVKANPTVSVQDGDKVLPDRTARELEGEEREHWWKLAVEAYPPYAEYQTKTDRLIPVFIVE
B1: the Km amounted to 3099 ± 916.4 µM in series [1], 4550 ± 360.6 µM in series [2], 2583 ± 667.2 µM in series [3] and 1514 ± 111 µM in series [4]. Also, the kcat is 0.12 ± 0.0114 s⁻¹ in series [1], 0.459 ± 0.013 s⁻¹ in series [2], 0.048 ± 0.0049 s⁻¹ in series [3] and 0.783 ± 0.0157 s⁻¹ in series [4]. Further, the kcat/Km was 38.7 ± 8.62 M⁻¹ s⁻¹ in series [1], 101 ± 5.7 M⁻¹ s⁻¹ in series [2], 18.6 ± 3.22 M⁻¹ s⁻¹ in series [3] and 517 ± 30.8 M⁻¹ s⁻¹ in series [4].

B2: MSMEG_2850 (Mycolicibacterium smegmatis MC2 155) (protein)
chain: MTEAIDWDQMNNQVIKEFRETGGKAGGLFEGSPLVLVHHTGAKSGKQRIAPLVPLLDGDRIYIFGSKGGADSHPDWYHNLVANPDTVVELGTETFPVKARVLTGAERDEIYAKQVAVAPQFGDYQRKTTRVIPVVELQRV
With B2, the Km in series [5] was found to be 862 ± 508 µM; in series [6] it was 4355 ± 312.6 µM; in series [7], 1739 ± 136.9 µM. In addition, the kcat in series [5] turned out to be 0.018 ± 0.0026 s⁻¹; in series [6], 0.279 ± 0.0071 s⁻¹; in series [7], 1.07 ± 0.0295 s⁻¹. Also, the kcat/Km stood at 21 ± 10.5 M⁻¹ s⁻¹ in series [5], 64.1 ± 3.29 M⁻¹ s⁻¹ in series [6] and 617 ± 35 M⁻¹ s⁻¹ in series [7].
